Measured values taken from article PMC6793842.

Columns and labels:
Assay in all cases: SPR
[1] = biological target: gorilla basigin, entire ectodomain (gorilla)
[2] = biological target: human basigin, entire ectodomain (human) (UniProt P35613)
[3] = biological target: chimpanzee basigin, entire ectodomain (chimpanzee)
[4] = biological target: gorilla basigin, entire ectodomain; details: read off a plot; for other: t1/2 (interaction half-life): parent: est. 1.9 s; for response (response units): plateau of the highest curve of four 2-fold serial dilutions (600 to 75 nM), parent: est. 92

Chain of human basigin, entire ectodomain (human) (P35613 138-325): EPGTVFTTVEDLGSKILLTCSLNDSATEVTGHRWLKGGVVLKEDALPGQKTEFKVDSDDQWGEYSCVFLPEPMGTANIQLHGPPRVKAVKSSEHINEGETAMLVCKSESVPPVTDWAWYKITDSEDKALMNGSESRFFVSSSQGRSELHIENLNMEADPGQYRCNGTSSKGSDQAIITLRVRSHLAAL

| Substance | Kd [2] | other: t1/2 (interaction half-life) [4] | response (response units) [4] | other results |
| --- | --- | --- | --- | --- |
| P. adleri RH5 (ligand) | 3100 nM |  |  | Kd [1]: 1000 nM |
| P. billcollinsi RH5 (ligand) |  |  |  | Kd [3]: 1800 nM |
| P. gaboni RH5 (ligand) | 3600 nM |  |  |  |
| P. praefalciparum RH5 (ligand) | 1900 nM |  |  | Kd [1]: 2500 nM |
| introgressed ancestral RH5 (reticulocyte-binding protein homologue 5) (from UniProt Q8IFM5) D148H |  | 2.5 s | 190 |  |
| introgressed ancestral RH5 (reticulocyte-binding protein homologue 5) (from UniProt Q8IFM5) H200Y |  |  | 26 |  |
| introgressed ancestral RH5 (reticulocyte-binding protein homologue 5) (from UniProt Q8IFM5) Q219K |  | 2.2 s | 310 |  |
| introgressed ancestral RH5 (reticulocyte-binding protein homologue 5) (from UniProt Q8IFM5) R216T |  | 2.3 s | 130 |  |
| introgressed ancestral RH5 (reticulocyte-binding protein homologue 5) (from UniProt Q8IFM5) Y197S |  | 1.9 s | 210 |  |
| introgressed ancestral RH5 (reticulocyte-binding protein homologue 5) (from UniProt Q8IFM5) Y203C |  | 1.2 s | 120 |  |
